The values that follow come from publication PMC2858704.

The target in the data set is T1, PefR (Gbs1402) (Streptococcus agalactiae NEM316) (UniProt Q8E4J9).
T1 sequence: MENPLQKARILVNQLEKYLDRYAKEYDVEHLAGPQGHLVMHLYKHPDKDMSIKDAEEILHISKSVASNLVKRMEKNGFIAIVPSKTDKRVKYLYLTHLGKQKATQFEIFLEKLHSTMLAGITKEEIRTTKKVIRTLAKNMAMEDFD
Put plainly: EMSA. To be noted: EMSA: 5% glycerol, 20 mM Tris-HCl pH 8, 50 mM KCl, 0.2 mM MgCl2, 1 mM EDTA, 0.2 mM DTT, 0.3 uM BSA, 15 ul, 37 C 20 min; 8% PAGE in 1x TBE, ethidium bromide …. In general terms: Mobility shift assays separate free from complexed probe on a gel.
As for “ATTTGTATTTTACTATCATTTACATTAAAAATCAATATAAATTTATAATTAAAAATATAAAAAGCGAACATATATTTTTAATATTAAAAAGTAAGCGAAATCATTTTTTATTTGACGAATGATAGGTTTTTTTTAGAAATATTAATGTAAAAATAGTTCTCACGGTAACTTTTAATTGACAATTAATAAAGGTTGTTTTAAAATAGTTCTCACGATAACTATTAAAGGAGTATTATTATGGAGAATC (double strand) [pefRCD promoter fragment (248 bp)]”, the binding result was “binds”.
On to “CTTGTTGAGCCGTTGACAACGAAATGTTAAAGCTATTCATCAAAGTTGGGATAGCCGTTCCCAAACTTGTCTGATTTAACACCCCTGCAAATGTAGCAATCAACAATAAGGTGATC (double strand) [control pefA internal fragment (116 bp)]”, for which the binding result is given as “no binding”.
The result for “GCGTAGAAGTCATTAAATGGAGAACGCTTTATTAGGAAAAATAGTGGGGAGATATTTTAGAAAAAGGAAATAATGATGTTTTGAAAAAAATAGTTTCTATGAGAATCTTTTTCTTGACAATAAAATTTAGCTATTATAAAATAGTTCTCACGATAACTAAAATAATGATTTTTTCAGAAAATAATATTATTTATTGATTAAAAAATCAAAAAATAACCTTATAAGACCTATTTGTTATTCTTAAAAGATATTAGTTAAAATCAGAAATAGAGATTGGAGATA (double strand) [pefAB promoter fragment (281 bp)]” reads “binds”.
